The labels stand for the following.
B1: mAb 3J10 (antibody, V domains shown)
VH: EVQLVESGGGVVQPGRSLRLSCAASGFSFSNYAMHWVRQAPGKGLEWVALISFDGSDKYYADSVKGRFTMSRDNSKNTLYLQMNSLRAEDTAVYYCARDEPYCGGDCFAFDVWGQGTMVTVS
VL: QSVLTQPPSVSGAPGQRVTISCTGSSSNIGAGYDVHWYQQLPGTAPKLLIYANNNRPSGVPDRFSGSKSGTSASLAITGLQAEDEADYYCQSYDSSLSGGVFGTGTTVTVLG
B2: mAb 8F24 (antibody, V domains shown)
VH: EVQLLESGGGLVQPGGSLRLSCAASGFAFSSYGMSWVRQAPGKGLEWVSAFSGSGTSTYYADSVKGRFTISRDKSKNTLYLQMNSLRAEDTAIYYCAKPPGPYIVVAGLFENWGRGTLVTVS
VL: EIVMTQSPATLSVSPGERVTLSCRASQSITDGLAWYQQKSGQAPRLLIYGASTRATGIPARFSGSGSGTEFTLTISSLQSEDFAVYYCQQYNNWPPVTFGQGTKVEIKR
B3: mAb 25F7 (antibody, V domains shown)
VH: B2 VH
VL: QSVLTQPPSVSGAPGQRVTISCTGTSSNIGAGYEVHWYQQLPGTAPKLIINANTNRPSGVPDRFSGSQSGTSASLAITGLRAEDEADYYCQSFDSSLSGWLFGGGTKLTVLG
B4: mAb 2K11 (antibody, V domains shown)
VH: EVQLVESGGGLVQPGGSLRLSCVASTFSLINYWMTWVRQAPGKGLEWVANIKQDGFEKYYVDSVKGRFTISRDNAKNSLYLQMNSLRVEDTAVYYCARQGSYADTYFYHYGMDVWGQGTTVTVS
VL: QSALTQPPSVSGAPGQRVTISCTGSSSNIGAGYDAYWYQQLPGTAPKLLIYGNSNRLSGVPDRFSASKSGTSASLAITGLQAEDEADYYCQSYDSSLSIFGGGTKLTVLR
B5: mAb 6K14 (antibody, V domains shown)
VH: EVQLVESGAEVKKPGASVKVSCKASGYTFTSFDINWVRQAPGQGLEWMGWMTPTSGKTGYAQKFQGRITMTRNTSINTAYMELSSLRSEDTAVYFCARGPERRTTIFDVILDWFDPWGQGTLVTVS
VL: DIVMTQSPFSLSLSPGERATLSCRASQSISNYLAWYQQKPGQAPRLLIYDSSNRATGVPARFSGSGSGTDFTLTISSLEPEDFAVYYCQQRSNWMYTFGQGTKVEIKR
B6: mAb 5J8 (antibody, V domains shown)
VH: EVQLVESGPGLVKPSDILSLTCAVSGYSISSNYYWGWIRQPPGKGLEWIGSIYHSGSTYYKPSLESRLGISVDTSKNQFSLKLSFVSAADTAVYYCARHVRSGYPDTAYYFDKWGQGTLVTVS
VL: SYVLTQPPSVSVAPGETARISCGGNNIGTKVLHWYQQTPGQAPVLVVYDDSDRPSGIPERFSGSNSGNTATLTISRVEVGDEADYYCQVWDISTDQAVFGGGTKLTVLG
B7: mAb 3E22 (antibody, V domains shown)
VH: EVQLVESGAEVKKPGASVKVSCKASGYTFSRYYIHWVRQAPGQELEWMGWINPDSGDTNYAQKFRGRVTMARDTSISTVYMELNSLRYDDTAVYFCARIIWSSSGMDVWGQGTTVTVS
VL: QSALTQPASVSGSPGQSITISCTGTSSDVGSYNLVSWYQQHPGKAPKLMIYEVSKRPSGVSNRFSGSKSGNTASLTISGLQAEDEADYYCHLYVGSSNWVFGGGTKLAVLG
B8: mAb 18G6 (antibody, V domains shown)
VH: QVQLKESGPGLVKPSETLSLTCTVSGGSISSSNYNWGWIRQPPGKGLEWIGSVYYSGSTYFNPSLKSRVTISVDTSKNQFSLKLTSVTAADTAVYYCARLIAFYYDTNGYTWGQGTLVTVS
VL: NSIMTQSPFTLSASVGDKVTITCRASQSISPWLAWYQQKPGKAPKLLIYKASSLETGVPSRFSGSESGTEFTLTISGLQPDDFATYYCQQYSSFARTFGQGTKVEIKR
B9: mAb 11J19 (antibody, V domains shown)
VH: EVQLQESGPGLVKPSETLSLSCTVSGGSITRSSYYWGWIRQPPGKGLEWIGNIYYSGTTYYNPSLKSRVTISVDTSKNQFSLKLSSVTAADTAVYYCARLYGSGLDYWGQGTLVTVS
VL: DIQLTQSPSFLSASVGDRVTITCRASQGSSRYVAWYQQKPGKAPKLLILAASTLHTGVPSRFSGSGSGTEFTLTISSLQPEDFATYSCQQLNGFLLTFGGGTKVEIKR
B10: mAb 10E15 (antibody, V domains shown)
VH: EVQLLESGGGVVQPGRSLRLSCAASGFTFRTYGMHWVRQAPGKGLEWVAVISHDGNLKYYGGSVKGRFTISRDNSKNALYLQMNSLRVDDTALYYCARGIGITDAFDIRGQGTMVVVS
VL: QSVLTQPPSVSAAPGQKVTISCSGSSSNIGKNYVSWYQQLPGTAPKLLIYDNDKRPSGIPDRFSGSKSGTSATLGITGLQTGDEADYHCGAWDSSLNGGVFGGGTKVTVLG
B11: mAb 25J3 (antibody, V domains shown)
VH: QVQLQESGPGLVRPSETLSLTCNVSGDSINDYYWSWIRQPPGKGLEWIGYIYYSGSTNYNPSLNSRVTISVEMSKNQFSLILNSVTAADTAVYYCARVDYDSGGSFDPWGQGTLVTVS
VL: B1 VL with A52G, N54S, Y88F, S96R, G100Y, T107K
B12: mAb 2O10 (antibody, V domains shown)
VH: EVQLVESGGGLVQPGGSLRLSCAASGFTFNSYWMTWVRQAPGKGLEWVANINQDGSEKFFVDSVKGRFTISRDNAKTSLYLQMNSLRVEDTAVYYCAREGAPYDTYYYYYAMDVWGQGTTVTVS
VL: QSVLTQPPSVSGAPGQRVTISCTGTSSNIGAGYGVHWYQQLPGAAPKLLVYGNSNRPSGVPDRFSGSKSGTSASLAITGLQAEDEADYYCQSYDISLSGSNVFGTGTKVTVLG
B13: 5J8 Fab (Fab, V domains shown)
VH: B6 VH
VL: B6 VL
B14: mAb 4K8 (antibody, V domains shown)
VH: EVQLVESGGGLVQPGGSLRLSCAASEFNFKSYWMTWVRQAPGKGLEWVANINQDGSEKNYVDSVKGRFTISRDNAKNSLHLQMSSLRVDDTAVYYCARTGSSWDTYYYYYAMDVWGQGTTVTVS
VL: DIQLTQSPVSLSLSPGERATLSCRASQSVSSSYLVWYQQKPGQAPRLLIYGASSRAPGIPDRFSGSGSGTDFTLTISRLEREDFAVYYCQQYGRSFGQGTKVEIKR

Numbering of substitutions follows the chain as printed.

Experimental findings from patent publication US20130289246A1 are described below.

In the first assay the target is recombinant soluble trimeric 1918 H1 HA (A/South Carolina/1/1918, wild type) (Influenza A virus A/South Carolina/1/1918 (H1N1)) (UniProt Q9WFX3). In words: ELISA, supernate.
For the molecule B1, the OD came to 0.069 OD.

With B2, the OD worked out at 0.209 OD.

Take B3: the OD was 0.075 OD.

The next assay deals with soluble 1999 H1 HA (seasonal 1999 H1N1) (Influenza A virus (H1N1, 1999)). The experiment in a line: ELISA, supernate. (ELISA stands for enzyme-linked immunosorbent assay.)
On to B4, for which the OD was 0.518 OD.

Consider B5, for which the OD stood at 0.203 OD.

B6 showed an OD of 1.46 OD.

With B7, the OD was found to be 2.06 OD.

On to B8, for which the OD was 0.071 OD.

B9: the OD is 0.071 OD.

In the case of B10, the OD was determined as 0.514 OD.

Turning to B11, the OD was 0.071 OD.

As to B1, the OD worked out at 0.711 OD.

Molecule B12 registered an OD of 0.872 OD.

Turning to B2, the OD was 1.01 OD.

With B3, the OD was 0.077 OD.

A further assay has as its target recombinant soluble 1968 H3 HA (A/Aichi/2/1968) (Influenza A virus A/Aichi/2/1968 (H3N2)) (UniProt P03437). In words: ELISA, supernate.
On to B1, for which the OD was found to be 0.076 OD.

For the molecule B2, the OD was found to be 0.669 OD.

B3: the OD stood at 0.085 OD.

The target in another assay is recombinant soluble trimeric 2009 H1 HA (A/California/04/2009, wild type) (Influenza A virus A/California/04/2009 (H1N1)). The experiment in a line: ELISA, supernate.
For the molecule B4, the OD is 1.28 OD.

In the case of B5, the OD stood at 2.12 OD.

As to B6, the OD was determined as 1.93 OD.

In the case of B7, the OD came to 2.38 OD.

As to B8, the OD was 0.071 OD.

For B9, the OD came out at 0.081 OD.

Take B10: the OD amounted to 0.996 OD.

As to B11, the OD amounted to 0.071 OD.

For the molecule B1, the OD was determined as 0.073 OD.

Regarding B12, the OD was determined as 1.62 OD.

As for B2, the OD was 0.714 OD.

Consider B3, for which the OD is 0.078 OD.

The next assay concerns the target soluble 2004 H5 HA (Influenza A virus (H5N1, 2004)). The experiment in a line: ELISA, supernate.
In the case of B4, the OD was determined as 0.075 OD.

Molecule B5 yielded an OD of 1.12 OD.

For B6, the OD amounted to 0.077 OD.

Molecule B7 came in with an OD of 1.57 OD.

Regarding B8, the OD worked out at 0.071 OD.

For the molecule B9, the OD turned out to be 0.067 OD.

As to B10, the OD turned out to be 1.69 OD.

For the molecule B11, the OD turned out to be 0.07 OD.

Take B1: the OD was found to be 0.075 OD.

Molecule B12 came in with an OD of 0.072 OD.

As to B2, the OD was 0.074 OD.

B3 had an OD of 0.076 OD.

The target in a further assay is recombinant soluble 1957 H2 HA (A/Japan/305+/1957) (Influenza A virus A/Japan/305+/1957 (H2N2)). The experiment in a line: ELISA, supernate.
B4: the OD was 0.08 OD.

As for B5, the OD is 1.93 OD.

For B6, the OD came to 0.077 OD.

For the molecule B7, the OD came out at 1.18 OD.

On to B8, for which the OD was 0.757 OD.

Turning to B9, the OD was determined as 0.079 OD.

With B10, the OD turned out to be 0.485 OD.

B11: the OD worked out at 0.07 OD.

Consider B1, for which the OD stood at 0.074 OD.

Take B12: the OD is 0.073 OD.

Turning to B2, the OD amounted to 0.073 OD.

Regarding B3, the OD stood at 0.871 OD.

The target of the next assay is recombinant soluble trimeric 2009 H1 HA (A/California/04/2009, wild type) (Influenza A virus A/California/04/2009 (H1N1)). In words: biolayer interferometry (Octet Red), His-tagged HA on anti-Penta-HIS tips.
In the case of B13, the Kd (commonly the concentration at which binding is half-saturated) worked out at 0.026 µM, the koff (usually the first-order rate constant of dissociation) came out at 0.0065 s⁻¹ and the on-rate (kon) (commonly the rate constant with which the complex forms) was found to be 250000 M⁻¹ s⁻¹.

The next assay has as its target HA of A/South Carolina/1/1918 (H1N1), wild type, on VLP (Influenza A virus A/South Carolina/1/1918 (H1N1)) (UniProt Q9WFX3). In words: cell-based or functional assay.
With B14, the HAI activity was less than 0.01 µg/mL.

In a further assay the target is HA of A/California/04/2009 (H1N1) virus (Influenza A virus (H1N1)). In words: cell-based or functional assay.
On to B14, for which the HAI activity was less than 0.01 µg/mL.

The next assay deals with HA of A/Weiss/1943 (H1N1) virus (Influenza A virus (H1N1)). The experiment in a line: cell-based or functional assay.
B14 showed an HAI activity of more than 20 µg/mL.

The target of a further assay is HA of A/New Caledonia/20/1999 (H1N1) virus (Influenza A virus (H1N1)). In words: cell-based or functional assay.
B14: the HAI activity was more than 20 µg/mL.

The target of the next assay is HA of A/L3/1947 (H1N1) virus (Influenza A virus (H1N1)). The experiment in a line: cell-based or functional assay.
Molecule B14 displayed an HAI activity of more than 20 µg/mL.

The next assay deals with HA of A/Brisbane/59/2007 (H1N1) virus (Influenza A virus (H1N1)). The experiment in a line: cell-based or functional assay.
Take B14: the HAI activity was more than 20 µg/mL.

A further assay has as its target HA of A/USSR/92/1977 (H1N1) virus (Influenza A virus (H1N1)). The experiment in a line: cell-based or functional assay.
The molecule B14 had an HAI activity of 0.32 µg/mL.

For a further assay, the target named is HA of A/swine/Iowa/15/1930 (H1N1) virus (Influenza A virus (H1N1)). The experiment in a line: cell-based or functional assay.
B14 showed an HAI activity of less than 0.01 µg/mL.

A further assay deals with HA of A/New Jersey/11/1976 (H1N1) virus (Influenza A virus (H1N1)). In words: cell-based or functional assay.
B14 displayed an HAI activity of 0.16 µg/mL.
